Target: recombinant Epithelial Glycoprotein-2 (EGP-2), baculovirus-expressed, purified (human) (UniProt P16422)
Experiment: SPR (BIAcore), scFv over amine-coupled recombinant EGP-2

Chain of UniProt P16422 (P16422 24-265 limits assumed): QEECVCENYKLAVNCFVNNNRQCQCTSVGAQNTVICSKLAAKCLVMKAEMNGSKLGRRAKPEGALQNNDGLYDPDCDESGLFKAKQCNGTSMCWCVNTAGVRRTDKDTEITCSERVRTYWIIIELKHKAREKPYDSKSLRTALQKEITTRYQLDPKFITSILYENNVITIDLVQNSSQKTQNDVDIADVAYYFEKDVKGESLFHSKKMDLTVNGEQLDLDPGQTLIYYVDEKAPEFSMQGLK

koff: 0.00034 s⁻¹
Substance: scFv MOC-31

Source: patent WO2000069914A2
